± gives the standard deviation of the averaged measurements.
Assays:
[1] = system: VchCAST RNA-guided transposition machinery (E. coli BL21(DE3) host, lacZ target); test: relative integration efficiency (T-LR orientation) vs wild-type transposon end (log2 (normalized fold change)); transposon end mutated: right end (5 bp flank + 75 bp right end); higher = more efficient transposition
In short: (§1)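 Barcoded pools of 1549 left-end or 1849 right-end transposon variants were cloned into a pUC57 mini-transposon donor. Each pool was co-transformed with a T7-driven effector plasmid (CRISPR array, tniQ-cas8-cas7-cas6, tnsA-tnsB-tnsC) into E. coli BL21(DE3) and plated with 0.1 mM IPTG at 37°C for 18 h. Input plasmids and genomic integration junctions were PCR-amplified and Illumina-sequenced, with two biological output replicates and four wild-type barcodes as reference. Relative integration efficiency is output/input barcode abundance fold change, normalised to wild-type barcodes and log-transformed.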

[2] = system: VchCAST RNA-guided transposition machinery (E. coli BL21(DE3) host, lacZ target); test: relative integration efficiency (T-RL orientation) vs wild-type transposon end (log2 (normalized fold change)); transposon end mutated: right end (5 bp flank + 75 bp right end); higher = more efficient transposition
In short: as §1

Sequence | relative integration efficiency (log2) [1] | relative integration efficiency (log2) [2]
ACATTTGTTGATACAACCATAAAATGATAATTAATAATTATTTATAATCAGCAACTTAACACCCATAAATTGATAATTATCACACCCATAAATTGATATTGCCTCTGATCATAGTCAGACCAACATT | -0.417 ± 0.9 | -3.62 ± 0.28
ACATTTGTTGATACAACCATAAAATGATAATTAATAATTATTTATAATCAGCAACTTAACCACAAAACACCCATAAATTGATAATTAACAAAACACCCATAAATTGATATTGCCTCTGATCATAGTC | < -10 | -5.1 ± 0.59
ACATTTGTTGATACAACCATAAAATGATAATTAATAATTATTTATAATCAGCAACTTAACCACAAAACACCCATAAATTGATAATTAACAAAAGTGGGTATTTAACTATAACGTGTGAATCGAGTAT | -1.88 ± 0.39 | -3.472 ± 0.019
ACATTTGTTGATACAACCATAAAATGATAATTAATAATTATTTATAATCAGCAACTTAACCACAAAACACCCATAAATTGATAATTAACAACACCCATAAATTGATATTGCCTCTGATCATAGTCAG | -1.12 ± 0.49 | -4.56 ± 0.76
ACATTTGTTGATACAACCATAAAATGATAATTAATAATTATTTATAATCAGCAACTTAACCACAAAACACCCATAAATTGATAATTATCAACAAACGCCCGGTCGCGGTACTCTGATCATAGTCAGA | -2.48 ± 1.9 | -4.43 ± 0.39
ACATTTGTTGATACAACCATAAAATGATAATTAATAATTATTTATAATCAGCAACTTAACCACAAACACCCATAAATTGATAATTATCAACAAACGCCCGGTCGCGGTACTCTGATCATAGTCAGAC | -0.33 ± 0.047 | -3.5 ± 0.52
ACATTTGTTGATACAACCATAAAATGATAATTAATAATTATTTATAATCAGCAACTTAACCACAAACACCCATAAATTGATAATTATCACACCCATAAATTGATATTGCCTCTGATCATAGTCAGAC | -4.03 ± 0.67 | -5.71 ± 1.2
ACATTTGTTGATACAACCATAAAATGATAATTAATAATTATTTATAATCAGCAACTTAACCACAACACCCATAAATTGATAATTATCAACAAACGCCCGGTCGCGGTACTCTGATCATAGTCAGACC | -0.0981 ± 0.042 | -3.33 ± 0.27
ACATTTGTTGATACAACCATAAAATGATAATTAATAATTATTTATAATCAGCAACTTAACCACAACACCCATAAATTGATAATTATCACACCCATAAATTGATATTGCCTCTGATCATAGTCAGACC | -2.74 ± 0.53 | -3.94 ± 1.1
ACATTTGTTGATACAACCATAAAATGATAATTAATAATTATTTATAATCAGCAACTTAACCACACACCCATAAATTGATAATTATCAACAAACGCCCGGTCGCGGTACTCTGATCATAGTCAGACCA | 0.76 ± 0.68 | -2.65 ± 0.4
ACATTTGTTGATACAACCATAAAATGATAATTAATAATTATTTATAATCAGCAACTTAACCACACACCCATAAATTGATAATTATCACACCCATAAATTGATATTGCCTCTGATCATAGTCAGACCA | -0.603 ± 0.78 | -3.09 ± 0.16
ACATTTGTTGATACAACCATAAAATGATAATTAATAATTATTTATAATCAGCAACTTAACCACACCCATAAATTGATAATTATCAACAAACGCCCGGTCGCGGTACTCTGATCATAGTCAGACCAAC | 1.01 ± 0.042 | -2.81 ± 0.91
ACATTTGTTGATACAACCATAAAATGATAATTAATAATTATTTATAATCAGCAACTTAACCACACCCATAAATTGATAATTATCACACCCATAAATTGATATTGCCTCTGATCATAGTCAGACCAAC | -0.704 ± 0.18 | -4.19 ± 0.29
ACATTTGTTGATACAACCATAAAATGATAATTAATAATTATTTATAATCAGCAACTTAACCACCACCCATAAATTGATAATTATCAACAAACGCCCGGTCGCGGTACTCTGATCATAGTCAGACCAA | 0.423 ± 1.1 | -3.21 ± 0.38
ACATTTGTTGATACAACCATAAAATGATAATTAATAATTATTTATAATCAGCAACTTAACCACCACCCATAAATTGATAATTATCACACCCATAAATTGATATTGCCTCTGATCATAGTCAGACCAA | -0.482 ± 0.91 | -3.5 ± 0.74
ACATTTGTTGATACAACCATAAAATGATAATTAATAATTATTTATAATCAGCAACTTAACCACCCATAAATTGATAATTATCAACAAACGCCCGGTCGCGGTACTCTGATCATAGTCAGACCAACAT | 0.501 ± 0.39 | -3.11 ± 0.29
ACATTTGTTGATACAACCATAAAATGATAATTAATAATTATTTATAATCAGCAACTTAACCACCCATAAATTGATAATTATCACACCCATAAATTGATATTGCCTCTGATCATAGTCAGACCAACAT | -1.2 ± 2.8 | -3.17 ± 0.073

Reference: the supplement of paper PMC10201428
